PMC9482650, “Quantitative fragmentomics allow affinity mapping of interactomes” (Nature Communications, 2022)

Columns and labels:
Assay in all cases: holdup assay
Design in all cases: key: below the threshold = too weak to quantify, mostly under pKd 3.1 to 4
MPDZ_5, O75970 = biological target: T1, MPDZ_5, O75970
T1 sequence (O75970 695-796, limits assumed, looked up): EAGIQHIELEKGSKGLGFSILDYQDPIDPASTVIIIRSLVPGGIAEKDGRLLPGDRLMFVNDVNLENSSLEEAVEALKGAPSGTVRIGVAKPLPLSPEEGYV

DLG4_3, P78352 = biological target: DLG4_3, P78352
DLG4_3, P78352, sequence (P78352 306-403): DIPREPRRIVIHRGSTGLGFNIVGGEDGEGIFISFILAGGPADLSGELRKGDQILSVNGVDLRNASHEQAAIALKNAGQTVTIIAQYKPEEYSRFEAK

SHANK1, Q9Y566 = biological target: T2, SHANK1, Q9Y566; conditions: plain residues with an end cap or a label only (N-terminal biotin on a linker: ttds)
T2 sequence (Q9Y566 658-767, limits assumed, looked up): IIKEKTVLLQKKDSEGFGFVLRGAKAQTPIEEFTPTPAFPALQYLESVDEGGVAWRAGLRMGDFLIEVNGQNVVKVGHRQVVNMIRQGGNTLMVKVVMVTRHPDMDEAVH

GORASP1, Q9BQQ3 = biological target: GORASP1, Q9BQQ3
GORASP1, Q9BQQ3, sequence (Q9BQQ3 1-208): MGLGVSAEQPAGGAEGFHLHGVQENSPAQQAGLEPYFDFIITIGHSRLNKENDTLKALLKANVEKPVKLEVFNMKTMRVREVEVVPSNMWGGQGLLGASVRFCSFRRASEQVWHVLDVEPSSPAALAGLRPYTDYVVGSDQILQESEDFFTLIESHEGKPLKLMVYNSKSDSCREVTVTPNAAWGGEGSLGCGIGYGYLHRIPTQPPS

LNX1_3, Q8TBB1 = biological target: LNX1_3, Q8TBB1
LNX1_3, Q8TBB1, sequence (Q8TBB1 500-596): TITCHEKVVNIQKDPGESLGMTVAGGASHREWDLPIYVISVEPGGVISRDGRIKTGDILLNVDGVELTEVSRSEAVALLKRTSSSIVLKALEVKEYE

DLG3_3, Q92796 = biological target: T3, DLG3_3, Q92796; conditions: plain residues with an end cap or a label only (N-terminal biotin on a linker: ttds)
T3 sequence (Q92796 374-475, limits assumed, looked up): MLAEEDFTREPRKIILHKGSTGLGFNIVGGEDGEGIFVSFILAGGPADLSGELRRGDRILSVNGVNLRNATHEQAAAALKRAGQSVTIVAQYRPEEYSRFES

FRMPD2_3, Q68DX3 = biological target: FRMPD2_3, Q68DX3
FRMPD2_3, Q68DX3, sequence (Q68DX3 1073-1166): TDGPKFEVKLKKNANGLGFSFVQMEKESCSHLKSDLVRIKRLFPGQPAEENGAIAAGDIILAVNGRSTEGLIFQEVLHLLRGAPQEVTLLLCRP

LAP2, Q96RT1 = biological target: LAP2, Q96RT1
LAP2, Q96RT1, sequence (Q96RT1 other isoform, or with tags, fused parts or gaps): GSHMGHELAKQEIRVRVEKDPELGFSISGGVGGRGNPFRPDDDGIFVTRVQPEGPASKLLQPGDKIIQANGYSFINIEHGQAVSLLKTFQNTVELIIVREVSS

MAGI2_6, Q86UL8 = biological target: MAGI2_6, Q86UL8
MAGI2_6, Q86UL8, sequence (Q86UL8 1141-1229): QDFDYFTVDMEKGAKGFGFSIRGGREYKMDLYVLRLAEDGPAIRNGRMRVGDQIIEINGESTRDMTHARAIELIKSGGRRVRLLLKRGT

FRMPD2_1, Q68DX3 = biological target: FRMPD2_1, Q68DX3
FRMPD2_1, Q68DX3, sequence (Q68DX3 770-861): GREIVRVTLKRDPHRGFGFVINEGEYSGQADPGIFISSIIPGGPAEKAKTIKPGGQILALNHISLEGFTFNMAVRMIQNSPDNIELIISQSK

SCRIB_2, Q14160 = biological target: SCRIB_2, Q14160
SCRIB_2, Q14160, sequence (Q14160 857-960): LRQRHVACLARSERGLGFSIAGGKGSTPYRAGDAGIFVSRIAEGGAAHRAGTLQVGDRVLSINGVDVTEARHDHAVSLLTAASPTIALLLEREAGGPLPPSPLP

SNTB1, Q13884 = biological target: T4, SNTB1, Q13884; conditions: plain residues with an end cap or a label only (N-terminal biotin on a linker: ttds)
T4 sequence (Q13884 107-205, limits assumed, looked up): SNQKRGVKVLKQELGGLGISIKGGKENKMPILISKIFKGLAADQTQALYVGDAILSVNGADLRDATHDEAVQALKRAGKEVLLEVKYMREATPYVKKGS

APBA2_1, Q99767 = biological target: T5, APBA2_1, Q99767
T5 sequence (Q99767 563-664, limits assumed, looked up): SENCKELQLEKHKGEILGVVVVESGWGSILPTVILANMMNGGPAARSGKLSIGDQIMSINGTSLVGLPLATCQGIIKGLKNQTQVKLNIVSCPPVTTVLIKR

PDZD7_3, Q9H5P4 = biological target: T6, PDZD7_3, Q9H5P4
T6 sequence (Q9H5P4 857-944, limits assumed, looked up): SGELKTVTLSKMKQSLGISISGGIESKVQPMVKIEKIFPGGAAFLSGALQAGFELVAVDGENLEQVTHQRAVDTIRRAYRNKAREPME

DVL3, Q92997 = biological target: T7, DVL3, Q92997
T7 sequence (Q92997 244-331, limits assumed, looked up): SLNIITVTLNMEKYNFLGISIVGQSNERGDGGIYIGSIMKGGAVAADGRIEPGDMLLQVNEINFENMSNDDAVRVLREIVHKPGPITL

GRIP1_7, Q9Y3R0 = biological target: T8, GRIP1_7, Q9Y3R0
T8 sequence (Q9Y3R0 999-1096, limits assumed, looked up): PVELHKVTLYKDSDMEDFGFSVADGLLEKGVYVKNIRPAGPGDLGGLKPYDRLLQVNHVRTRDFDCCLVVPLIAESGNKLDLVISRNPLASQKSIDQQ

NOS1, P29475 = biological target: NOS1, P29475
NOS1, P29475, sequence (P29475 9-101): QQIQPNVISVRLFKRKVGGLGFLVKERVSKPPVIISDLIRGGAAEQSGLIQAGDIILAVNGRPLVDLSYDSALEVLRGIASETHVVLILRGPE

Inadl_1, Q8NI35 = biological target: Inadl_1, Q8NI35
Inadl_1, Q8NI35, sequence (Q8NI35 113-229): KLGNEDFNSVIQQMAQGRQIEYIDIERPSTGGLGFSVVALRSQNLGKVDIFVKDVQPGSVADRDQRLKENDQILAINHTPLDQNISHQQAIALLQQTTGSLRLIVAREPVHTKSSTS

MAGI2_4, Q86UL8 = conditions: plain residues with an end cap or a label only (N-terminal biotin on a linker: ttds)
MAGI2_4, Q86UL8, sequence (Q86UL8 772-865): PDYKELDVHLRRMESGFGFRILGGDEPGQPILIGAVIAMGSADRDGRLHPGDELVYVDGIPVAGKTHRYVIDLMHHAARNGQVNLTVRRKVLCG

DLG1_3, Q12959 = biological target: DLG1_3, Q12959
DLG1_3, Q12959, sequence (Q12959 457-571): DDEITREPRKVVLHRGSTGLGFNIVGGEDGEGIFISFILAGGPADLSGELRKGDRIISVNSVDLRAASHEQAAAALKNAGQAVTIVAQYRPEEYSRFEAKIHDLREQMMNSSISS

Inadl_5, Q8NI35 = biological target: Inadl_5, Q8NI35
Inadl_5, Q8NI35, sequence (Q8NI35 673-780): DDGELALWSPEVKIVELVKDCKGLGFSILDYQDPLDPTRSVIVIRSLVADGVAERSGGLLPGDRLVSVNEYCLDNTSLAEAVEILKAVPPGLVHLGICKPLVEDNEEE

FRMPD2_2, Q68DX3 = biological target: FRMPD2_2, Q68DX3
FRMPD2_2, Q68DX3, sequence (Q68DX3 944-1038): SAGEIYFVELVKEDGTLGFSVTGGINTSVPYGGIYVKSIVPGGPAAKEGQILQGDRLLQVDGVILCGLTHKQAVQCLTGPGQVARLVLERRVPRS

LIN7C, Q9NUP9 = biological target: T9, LIN7C, Q9NUP9
T9 sequence (Q9NUP9 88-185, limits assumed, looked up): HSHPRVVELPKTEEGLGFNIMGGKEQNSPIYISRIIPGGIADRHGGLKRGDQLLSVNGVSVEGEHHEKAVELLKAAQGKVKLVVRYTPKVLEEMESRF

FRMPD1, Q5SYB0 = biological target: T10, FRMPD1, Q5SYB0
T10 sequence (Q5SYB0 52-145, limits assumed, looked up): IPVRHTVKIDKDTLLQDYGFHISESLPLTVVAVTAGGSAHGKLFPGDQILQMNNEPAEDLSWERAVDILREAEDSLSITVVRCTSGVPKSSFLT

APBA1_2, Q02410 = biological target: T11, APBA1_2, Q02410
T11 sequence (Q02410 742-832, limits assumed, looked up): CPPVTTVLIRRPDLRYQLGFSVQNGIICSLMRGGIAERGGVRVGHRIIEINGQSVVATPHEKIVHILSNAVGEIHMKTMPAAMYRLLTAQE

CASK, O14936 = biological target: CASK, O14936
CASK, O14936, sequence (O14936 487-570): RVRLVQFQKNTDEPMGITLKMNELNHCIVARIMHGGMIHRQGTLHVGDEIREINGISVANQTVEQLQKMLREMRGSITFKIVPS

GOPC, Q9HD26 = biological target: GOPC, Q9HD26
[1] = plain residues with an end cap or a label only (N-terminal biotin on a linker: ttds)
[2] = plain residues with an end cap or a label only (N-terminal biotin on a linker: ahx)

RLQRRRETQV [HPV18-E6, P06463]
pKd (MPDZ_5, O75970; [1]): below the threshold | pKd (DLG4_3, P78352; [1]): 5.74 | pKd (SHANK1, Q9Y566): below the threshold | pKd (GORASP1, Q9BQQ3; [1]): below the threshold | pKd (LNX1_3, Q8TBB1; [1]): below the threshold | pKd (DLG3_3, Q92796): 5.44 | pKd (FRMPD2_3, Q68DX3; [1]): below the threshold | pKd (LAP2, Q96RT1; [1]): 3.61 | pKd (MAGI2_6, Q86UL8; [1]): below the threshold | pKd (FRMPD2_1, Q68DX3; [1]): 4.1 | pKd (SCRIB_2, Q14160; [1]): 4.44 | pKd (SNTB1, Q13884): 5.23 | pKd (APBA2_1, Q99767; [1]): below the threshold | pKd (PDZD7_3, Q9H5P4; [1]): 3.98 | pKd (DVL3, Q92997; [1]): below the threshold | pKd (GRIP1_7, Q9Y3R0; [1]): below the threshold | pKd (NOS1, P29475; [1]): 3.71 | pKd (Inadl_1, Q8NI35; [1]): below the threshold | pKd (MAGI2_4, Q86UL8): 4.28 | pKd (DLG1_3, Q12959; [1]): 5.02 | pKd (Inadl_5, Q8NI35; [1]): 3.52 | pKd (FRMPD2_2, Q68DX3; [1]): below the threshold | pKd (LIN7C, Q9NUP9; [1]): 4.17 | pKd (FRMPD1, Q5SYB0; [1]): below the threshold | pKd (APBA1_2, Q02410; [1]): below the threshold | pKd (CASK, O14936; [1]): below the threshold

EMDRRPATVV [PLCB4, Q15147]
pKd (MPDZ_5, O75970; [1]): 3.66 | pKd (DLG4_3, P78352; [1]): 3.95 | pKd (SHANK1, Q9Y566): below the threshold | pKd (GORASP1, Q9BQQ3; [1]): 4.06 | pKd (LNX1_3, Q8TBB1; [1]): below the threshold | pKd (DLG3_3, Q92796): 3.78 | pKd (FRMPD2_3, Q68DX3; [1]): 4.01 | pKd (LAP2, Q96RT1; [1]): below the threshold | pKd (MAGI2_6, Q86UL8; [1]): below the threshold | pKd (FRMPD2_1, Q68DX3; [1]): 3.97 | pKd (SCRIB_2, Q14160; [1]): below the threshold | pKd (SNTB1, Q13884): 4.71 | pKd (APBA2_1, Q99767; [1]): below the threshold | pKd (PDZD7_3, Q9H5P4; [1]): 5.03 | pKd (DVL3, Q92997; [1]): below the threshold | pKd (GOPC, Q9HD26; [1]): 4.04 | pKd (GRIP1_7, Q9Y3R0; [1]): below the threshold | pKd (NOS1, P29475; [1]): 4.11 | pKd (MAGI2_4, Q86UL8): 3.77 | pKd (FRMPD2_2, Q68DX3; [1]): 3.78 | pKd (LIN7C, Q9NUP9; [1]): below the threshold | pKd (FRMPD1, Q5SYB0; [1]): 3.61 | pKd (APBA1_2, Q02410; [1]): 3.79 | pKd (CASK, O14936; [1]): below the threshold

NDPAWDETNL [ARHGEF7, Q14155;Q14155-1]
pKd (MPDZ_5, O75970; [1]): below the threshold | pKd (DLG4_3, P78352; [1]): below the threshold | pKd (SHANK1, Q9Y566): 4.79 | pKd (GORASP1, Q9BQQ3; [1]): below the threshold | pKd (LNX1_3, Q8TBB1; [1]): below the threshold | pKd (DLG3_3, Q92796): below the threshold | pKd (FRMPD2_3, Q68DX3; [1]): below the threshold | pKd (LAP2, Q96RT1; [1]): 4.46 | pKd (MAGI2_6, Q86UL8; [1]): 3.92 | pKd (FRMPD2_1, Q68DX3; [1]): below the threshold | pKd (SCRIB_2, Q14160; [1]): 4.68 | pKd (SNTB1, Q13884): 4.26 | pKd (APBA2_1, Q99767; [1]): below the threshold | pKd (PDZD7_3, Q9H5P4; [1]): 4.24 | pKd (DVL3, Q92997; [1]): below the threshold | pKd (GOPC, Q9HD26; [1]): 4.13 | pKd (GRIP1_7, Q9Y3R0; [1]): below the threshold | pKd (NOS1, P29475; [1]): below the threshold | pKd (MAGI2_4, Q86UL8): below the threshold | pKd (DLG1_3, Q12959; [1]): below the threshold | pKd (Inadl_5, Q8NI35; [1]): below the threshold | pKd (FRMPD2_2, Q68DX3; [1]): below the threshold | pKd (LIN7C, Q9NUP9; [1]): below the threshold | pKd (FRMPD1, Q5SYB0; [1]): below the threshold | pKd (CASK, O14936; [1]): below the threshold

LSDPSVSTVV [GRIN1, Q05586;Q05586-2]
pKd (MPDZ_5, O75970; [2]): below the threshold | pKd (DLG4_3, P78352; [2]): below the threshold | pKd (GORASP1, Q9BQQ3; [2]): below the threshold | pKd (LNX1_3, Q8TBB1; [2]): below the threshold | pKd (FRMPD2_3, Q68DX3; [2]): below the threshold | pKd (LAP2, Q96RT1; [2]): below the threshold | pKd (MAGI2_6, Q86UL8; [2]): below the threshold | pKd (FRMPD2_1, Q68DX3; [2]): below the threshold | pKd (SCRIB_2, Q14160; [2]): below the threshold | pKd (APBA2_1, Q99767; [2]): below the threshold | pKd (PDZD7_3, Q9H5P4; [2]): 4.54 | pKd (DVL3, Q92997; [2]): below the threshold | pKd (GOPC, Q9HD26; [2]): below the threshold | pKd (GRIP1_7, Q9Y3R0; [2]): below the threshold | pKd (NOS1, P29475; [2]): below the threshold | pKd (Inadl_1, Q8NI35; [2]): below the threshold | pKd (DLG1_3, Q12959; [2]): below the threshold | pKd (Inadl_5, Q8NI35; [2]): below the threshold | pKd (FRMPD2_2, Q68DX3; [2]): below the threshold | pKd (LIN7C, Q9NUP9; [2]): below the threshold | pKd (FRMPD1, Q5SYB0; [2]): below the threshold | pKd (APBA1_2, Q02410; [2]): below the threshold | pKd (CASK, O14936; [2]): below the threshold
